{"source": "patent US20040214771", "proteins": {"B1": {"name": "active recombinant human caspase 3 (BD PharMingen) (protein)", "chain": "SGISLDNSYKMDYPEMGLCIIINNKNFHKSTGMTSRSGTDVDAANLRETFRNLKYEVRNKNDLTREEIVELMRDVSKEDHSKRSSFVCVLLSHGEEGIIFGTNGPVDLKKITNFFRGDRCRSLTGKPKLFIIQACRGTELDCGIETDSGVDDDMACHKIPVEADFLYAYSTAPGYYSWRNSKDGSWFIQSLCAMLKQYADKLEFMHILTRVNRKVATEFESFSFDATFHAKKQIPCIVSMLTKELYFYH"}}, "molecular_target": "T1, recombinant purified full length SRF (pET-15b, histidine tag, expressed in BL21)", "T1 chain": "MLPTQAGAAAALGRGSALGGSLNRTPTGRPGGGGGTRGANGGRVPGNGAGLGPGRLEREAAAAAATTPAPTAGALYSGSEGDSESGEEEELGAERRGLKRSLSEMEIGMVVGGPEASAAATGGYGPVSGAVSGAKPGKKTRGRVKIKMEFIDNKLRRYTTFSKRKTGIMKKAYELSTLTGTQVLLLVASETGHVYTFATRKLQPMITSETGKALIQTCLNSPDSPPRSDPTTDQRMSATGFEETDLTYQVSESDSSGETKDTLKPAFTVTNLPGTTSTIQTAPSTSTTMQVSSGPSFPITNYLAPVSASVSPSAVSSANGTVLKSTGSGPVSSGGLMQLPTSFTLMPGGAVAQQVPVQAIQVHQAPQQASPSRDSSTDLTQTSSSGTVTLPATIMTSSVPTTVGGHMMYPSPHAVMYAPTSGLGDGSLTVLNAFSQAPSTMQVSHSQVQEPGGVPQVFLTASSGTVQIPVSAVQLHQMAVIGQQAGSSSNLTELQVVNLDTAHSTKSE", "data": [{"protein": "B1", "values": [{"measurement": "in vitro cleavage of SRF, read by Western blot", "value": "Caspase 3 cleaved SRF in a time-dependent manner"}]}]}
